Consider six molecules from paper PMC8439582 (Nature structural & molecular biology, 2019).

First the molecules themselves.
B1: Tom40 with a C-terminal Strep-tag (overexpressed, wild type) (natural protein, S. cerevisiae, UniProt P23644 1-387, looked up)
chain: MSAPTPLAEASQIPTIPALSPLTAKQSKGNFFSSNPISSFVVDTYKQLHSHRQSLELVNPGTVENLNKEVSRDVFLSQYFFTGLRADLNKAFSMNPAFQTSHTFSIGSQALPKYAFSALFANDNLFAQGNIDNDLSVSGRLNYGWDKKNISKVNLQISDGQPTMCQLEQDYQASDFSVNVKTLNPSFSEKGEFTGVAVASFLQSVTPQLALGLETLYSRTDGSAPGDAGVSYLTRYVSKKQDWIFSGQLQANGALIASLWRKVAQNVEAGIETTLQAGMVPITDPLMGTPIGIQPTVEGSTTIGAKYEYRQSVYRGTLDSNGKVACFLERKVLPTLSVLFCGEIDHFKNDTKIGCGLQFETAGNQELLMLQQGLDADGNPLQALPQL
B4: Tom22 with a C-terminal His-tag (natural protein, S. cerevisiae, UniProt P49334 1-152, looked up)
chain: MVELTEIKDDVVQLDEPQFSRNQAIVEEKASATNNDVVDDEDDSDSDFEDEFDENETLLDRIVALKDIVPPGKRQTISNFFGFTSSFVRNAFTKSGNLAWTLTTTALLLGVPLSLSILAEQQLIEMEKTFDLQSDANNILAQGEKDAAATAN

Like-named read-outs stand apart in the source and are kept apart here.

The data set “cryo-EM structure” concerns the molecule itself. As to the kind of experiment: cryo-EM structure.
The data set “SEC” deals with the molecule itself. As to the kind of experiment: SEC. A general note: In gel filtration, larger molecules generally elute earlier.
Data set [1] deals with B1. As to the kind of experiment: cryo-EM structure.
Data set [2] has as its target B1. As to the kind of experiment: cryo-EM structure. This is another data set of the same source.
In data set [3] the target is B4. The data set can be described thus: cryo-EM structure.

For B1, the binding result in the data set “cryo-EM structure” is listed as “binds”.

B2: core TOM complex from S. cerevisiae (Tom40, Tom22, Tom5, Tom6, Tom7) (complex)
chain 1: MSAPTPLAEASQIPTIPALSPLTAKQSKGNFFSSNPISSFVVDTYKQLHSHRQSLELVNPGTVENLNKEVSRDVFLSQYFFTGLRADLNKAFSMNPAFQTSHTFSIGSQALPKYAFSALFANDNLFAQGNIDNDLSVSGRLNYGWDKKNISKVNLQISDGQPTMCQLEQDYQASDFSVNVKTLNPSFSEKGEFTGVAVASFLQSVTPQLALGLETLYSRTDGSAPGDAGVSYLTRYVSKKQDWIFSGQLQANGALIASLWRKVAQNVEAGIETTLQAGMVPITDPLMGTPIGIQPTVEGSTTIGAKYEYRQSVYRGTLDSNGKVACFLERKVLPTLSVLFCGEIDHFKNDTKIGCGLQFETAGNQELLMLQQGLDADGNPLQALPQL
chain 2: MVELTEIKDDVVQLDEPQFSRNQAIVEEKASATNNDVVDDEDDSDSDFEDEFDENETLLDRIVALKDIVPPGKRQTISNFFGFTSSFVRNAFTKSGNLAWTLTTTALLLGVPLSLSILAEQQLIEMEKTFDLQSDANNILAQGEKDAAATAN
chain 3: MFGLPQQEVSEEEKRAHQEQTEKTLKQAAYVAAFLWVSPMIWHLVKKQWK
chain 4: MDGMFAMPGAAAGAASPQQPKSRFQAFKESPLYTIALNGAFFVAGVAFIQSPLMDMLAPQL
chain 5: MSFLPSFILSDESKERISKILTLTHNVAHYGWIPFVLYLGWAHTSNRPNFLNLLSPLPSV
Usually stoichiometry N stands for the number of molecules, sites or subunits per partner or assembly. As to B2, the “stoichiometry N” value in the data set “SEC” was 2.

B3: Tom7 (natural protein, S. cerevisiae, UniProt P53507 1-60, looked up)
chain: MSFLPSFILSDESKERISKILTLTHNVAHYGWIPFVLYLGWAHTSNRPNFLNLLSPLPSV
For B3, the binding result in data set [1] is “binds”.

Consider B4, for which the binding result in data set [1] is listed as “binds”.

B5: Tom6 (natural protein, S. cerevisiae, UniProt P33448 1-61, looked up)
chain: MDGMFAMPGAAAGAASPQQPKSRFQAFKESPLYTIALNGAFFVAGVAFIQSPLMDMLAPQL
Consider B5, for which, in data set [2], the binding result is recorded as “binds”.

Take MFGLPQQEVSEEEKRAHQEQTEKTLKQAAYVAAFLWVSPMIWHLVKKQWK (natural protein, S. cerevisiae, UniProt P80967 1-50, looked up) [Tom5]: the binding result in data set [1] and in data set [3] was “binds” throughout.
